Laboratory results from patent US6723697B2, “IL-16 antagonists” (Research Corporation Technologies, Inc., priority 1999, dated 2004).
Substitutions are numbered along the chain they refer to. Entries after “also recorded” stand apart in the source; their conditions may differ.

Tests used:
Assay type in all cases: cell-based
murine rIL-16 [1] = target: T1, murine rIL-16 (Mus musculus, UniProt O54824); test: murine rIL-16-stimulated murine splenocyte migration, modified Boyden chamber; settings: for IL-16-inhibitory activity (block of murine rIL-16-stimulated murine splenocyte migration): peptide concentration not given
T1 construct: polyhistidine fusion protein containing the 119 C-terminal residues encoded by the previously reported murine cDNA; polyhistidine (cleaved yes); made in house; host or cells: Escherichia coli strain HMS 174, vector pET16b
T1 sequence (O54824 1204-1322): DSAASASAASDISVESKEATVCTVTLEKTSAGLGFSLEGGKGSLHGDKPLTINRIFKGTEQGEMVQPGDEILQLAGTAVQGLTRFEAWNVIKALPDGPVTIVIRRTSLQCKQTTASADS
Experimental: (§1) Cell migration was assessed using a modified Boyden chamber. […] Cell migration is expressed as the mean % control migration.
(§2) Results from multiple experiments were analyzed using Student's t test for paired variables, and Tukey's test for multiple variables. A P value<0.05 was considered significant.
Peptide B (aa 341-352) includes the sequence WQCLLS (residues 344-349, SEQ ID NO:4) which is 100% conserved in all the species examined. Peptide A (aa 327-338) and peptide C (aa 351-362) correspond to the N-terminal and C-terminal flanks of peptide B, respectively. A random scrambled 12-residue peptide (LSKQKMVSREGT) designated peptide D (SEQ ID NO:20) was used a negative control for nonspecific effects of peptide administration on splenocyte motility. Criteria for the design of peptide D included overall hydrophilicity, neutral charge and no cysteine residues (to prevent possible dimer formation).
Murine spleens were harvested from healthy 8-week male BALB/c mice (Jackson Laboratory). Splenocytes were isolated by grinding spleens between fiysted slides in M199 culture medium (M. A. Bioproducts), supplemented with 0.4% bovine serum albumin, 22 mM HEPES buffer, 100 with U/ml of penicillin, 100 μg/ml streptomycin (M199-HPS). Cells were washed and erytbrocytes were lysed in Gey's solution. Splenocytes were washed twice in M199, and resuspended to a final concentration of 2×10^6 cells/ml in RPMI1640 medium (BioWhittaker) supplemented with 10% FBS, 100 U/ml of penicillin and 100 μg/ml of streptomycin. By flow cytometry, 25% of the isolated splenocytes within the lymphocyte-cloud were CD4^+.
Recombinant murine IL-16 was produced in Escherichia coli (strain HMS 174; Novagen) as a polyhistidine fusion protein containing the 119 C-terminal residues encoded by the previously reported murine cDNA (Keane et al., (1998) J. Immunol. 160: 5945-5954), using the bacterial expression vector pET16b (Novagen). The recombinant product corresponds to the secreted form of natural murine IL-16 following cleavage by caspase-3 (Zhang et al. (1998) J. Biol. Chem. 273:1144-1149). The rIL-16 was purified by metal chelation chromatography, and the polyhistidine tag was cleaved with factor Xa (New England Biolabs).

rIL-16 = target: T2, rIL-16 (Mus musculus, UniProt O54824); test: IL-2R (CD25) induction on rIL-16-stimulated murine splenocytes, flow cytometry
T2 construct: polyhistidine fusion protein containing the 119 C-terminal residues encoded by the previously reported murine cDNA; polyhistidine (cleaved yes); made in house; host or cells: Escherichia coli strain HMS 174, vector pET16b
T2 sequence (O54824 1204-1322): T1 sequence (O54824 1204-1322)
Experimental: Induction of IL-2R (CD25) on rIL-16-stimulated murine splenocytes was detected by staining with FITC-conjugated anti-mouse IL-2R Ab (PharMingen). Cells were fixed with 10% formalin and stored at 4° C. in the dark before analysis with a Becton Dickinson FACScan 440 flow cytometer. The % IL-2R^+ cells was determined by subtracting the % isotype control positive from the total % positive events.
Peptides A (SEQ ID NO:15) and C (SEQ ID NO:19) were inhibitory at 10^−7 M, but not 10^−6 M. The negative control peptide D (SEQ ID NO:20) (10^−6 M) had no effect on rIL-16-stimulated IL-2R expression.
Murine splenocytes were incubated in control buffer, rIL-16 alone, or rIL-16 plus the indicated peptide. IL-2R expression was determined by flow cytometry using FITC-conjugated anti-IL-2R antibody. The % IL-2R^+ was determined by subtracting the FITC-conjugated isotype control antibody binding from the FITC-conjugated anti-IL-2R antibody binding. Isotype control antibody binding ranged from 1% to 4%.

murine rIL-16 [2] = target: T1, murine rIL-16; test: IL-16-stimulated T-lymphocyte migration, human CD4 D4 point mutants; settings: human CD4 D4 wild type or point mutant, rIL-16 10^-9 M
Experimental: Point mutations at Leu 348 and Leu 349 in human CD4 were prepared as follows.
Initially 100 ng of wild type human CD4 cDNA (Richard Axel, Columbia University, N.Y.) contained within the mammalian expression vector pcDNA3.1(−) (Invitrogen, Carlsbad, Calif.) was subjected to the polymerase chain reaction (PCR) in the presence of 125 ng of each set of primer pairs. PCR conditions were as follows:
The time for the elongation step varied according to the relationship of 2 minutes per kilobase of plasmid DNA length. The product was then subjected to restriction digestion with the enzyme Dpn for 1 h. at 37° C. Dpn is specific for methylated nucleotides and therefore will only cut the original wide type CD4-plasmid DNA. The transformation reaction required the addition of 1 μl of the digest to 50 μl of Epicurean Blue Eschericia coli which was incubated on ice for 30 min. and finally heat shocked 42° C., 45 sec to seal the supercompent bacteria. The resultant bacteria culture was selected on ampicillin plates and sequenced to confirm mutagenesis.
as §1, §2
(FIGS. 10A and 10B). […] (FIGS. 11A and 11B).

In the case of “VAPETG (OTHER INFORMATION: Description of Artificial Sequence:IL-16 antagonist peptide) [aa 337-342, bridges peptide A and peptide B]”, the “IL-16-inhibitory activity (block of murine rIL-16-stimulated murine splenocyte migration)” value (murine rIL-16 [1]; rIL-16 10^-9 M) is reported as “failure; also recorded: lacked inhibitory activity”.

With “WQCLLS (OTHER INFORMATION: Description of Artificial Sequence:IL-16 antagonist peptide) [aa 344-349 of mouse CD4 D4]” the “inhibition of IL-16 (splenocyte migration)” value (murine rIL-16 [1]; peptide 10^-7 M, rIL-16 10^-9 M) was “inhibited IL-16”.

For “VKQVVA (OTHER INFORMATION: Description of Artificial Sequence:IL-16 antagonist peptide) [aa 334 V:K substituted]”, the “reduction of IL-16-stimulated splenocyte migration in combination with peptide B” value (murine rIL-16 [1]; peptide 10^-6 M plus peptide B fixed 0.5×10^-8 M) was “reduced IL-16-stimulated splenocyte migration” and the “reduction of IL-16-stimulated splenocyte migration in combination with peptide B” value (murine rIL-16 [1]; peptide 10^-7 M plus peptide B fixed 0.5×10^-8 M) was “reduced IL-16-stimulated splenocyte migration”.

For “WQALLS (OTHER INFORMATION: Description of Artificial Sequence:IL-16 antagonist peptide) [aa 346 C:A substituted]”, the “IL-16-inhibitory activity (block of murine rIL-16-stimulated murine splenocyte migration)” value (murine rIL-16 [1]; rIL-16 10^-9 M) was “equally as effective as the native WQCLLS”.

For “VVQVVA (OTHER INFORMATION: Description of Artificial Sequence:IL-16 antagonist peptide) [aa 333-338 of mouse CD4 D4, C-terminal half of peptide A]”, the “synergistic activity with peptide B” value (murine rIL-16 [1]; 6-residue peptide 10^-8 M combined with peptide B, data not shown) was “synergistic activity” and the “inhibition of rIL-16-induced splenocyte migration” value (murine rIL-16 [1]; peptide 10^-6 M, rIL-16 10^-9 M) was “inhibited rIL16-induced splenocyte migration”.

For “WQCELS (OTHER INFORMATION: Description of Artificial Sequence:IL-16 antagonist peptide) [aa 347 L:E substituted]”, the “IL-16-inhibitory activity (block of murine rIL-16-stimulated murine splenocyte migration)” value (murine rIL-16 [1]; rIL-16 10^-9 M) was “failed to block IL-16”.

In the case of “VSEEQK (OTHER INFORMATION: Description of Artificial Sequence:IL-16 antagonist peptide) [N-terminal half of peptide A]”, the “synergy when combined with peptide B” value (murine rIL-16 [1]; concentration not given, data not shown) is reported as “no synergy” and the “IL-16-inhibitory activity (block of murine rIL-16-stimulated murine splenocyte migration)” value (murine rIL-16 [1]; rIL-16 10^-9 M) is reported as “no inhibitory activity”.

With “VVQKVA (OTHER INFORMATION: Description of Artificial Sequence:IL-16 antagonist peptide) [aa 336 V:K substituted]” the “block of IL-16-stimulated splenocyte motility in combination with peptide B” value (murine rIL-16 [1]; peptide 0.5×10^-6 M to 0.5×10^-9 M (any concentration) plus peptide B fixed 0.5×10^-8 M) was “did not block IL-16”.

For “LSKQKMVSREGT (OTHER INFORMATION: Description of Artificial Sequence:IL-16 antagonist peptide) [peptide D, random scrambled 12-residue peptide used as negative control, reference compound]”, the “% IL-2R+ CELLS” value (rIL-16; IL-16 + negative control peptide, 10^-6 M) was 37% and the “inhibition of IL-16-stimulated induction of IL-2R” value (rIL-16; peptide 10^-6 M) was “no effect”.

In the case of “WACLLS (OTHER INFORMATION: Description of Artificial Sequence:IL-16 antagonist peptide) [aa 345 Q:A substituted]”, the “IL-16-inhibitory activity (block of murine rIL-16-stimulated murine splenocyte migration)” value (murine rIL-16 [1]; rIL-16 10^-9 M) is reported as “failed to block IL-16”.

B1: NLTCEVWGPTSPKLMLSLKLENKEAKVSKREKAVWVLNPEAGMWQCLLSDSGQVLLESNIKVLPTWSTPVQPM (peptide)
chain: NLTCEVWGPTSPKLMLSLKLENKEAKVSKREKAVWVLNPEAGMWQCLLSDSGQVLLESNIKVLPTWSTPVQPM
modifications: OTHER INFORMATION: Description of Artificial Sequence:IL-16 antagonist peptide
notes: aa 302-374 of human CD4 D4
B1 was tested, and the “inhibition of IL-16-stimulated T-lymphocyte migration” value (murine rIL-16 [2]) was “IL-16-inhibitory activity”.

B2: NLTCEVWGPTSPKLMLSLKLENKEAKVSKREKAVWVLNPEAGMWQCSLSDSGQVLLESNIKVLPTWSTPVQPM (peptide)
chain: B1 chain with L47S
modifications: OTHER INFORMATION: Description of Artificial Sequence:IL-16 antagonist peptide
notes: human CD4 D4 with leucine 348 to serine
In the case of B2, the “inhibition of IL-16-stimulated T-lymphocyte migration” value (murine rIL-16 [2]) is reported as “lost the ability to inhibit” and the “inhibition of IL-16-stimulated T-lymphocyte migration” value (murine rIL-16 [2]; listed as human CD4 (L348→S)) is reported as “complete loss in inhibition”.

B3: NLTCEVWGPTSPKLMLSLKLENKEAKVSKREKAVWVLNPEAGMWQCLSSDSGQVLLESNIKVLPTWSTPVQPM (peptide)
chain: B1 chain with L48S
modifications: OTHER INFORMATION: Description of Artificial Sequence:IL-16 antagonist peptide
notes: human CD4 D4 with leucine 349 to serine
For B3, the “inhibition of IL-16-stimulated T-lymphocyte migration” value (murine rIL-16 [2]) was “lost the ability to inhibit” and the “inhibition of IL-16-stimulated T-lymphocyte migration” value (murine rIL-16 [2]; listed as human CD4 (L349→S)) was “complete loss in inhibition”.

B4: NLTCEVWGPTSPKLMLSLKLENKEAKVSKREKAVWVLNPEAGMWQCLISDSGQVLLESNIKVLPTWSTPVQPM (peptide)
chain: B1 chain with L48I
modifications: OTHER INFORMATION: Description of Artificial Sequence:IL-16 antagonist peptide
notes: human CD4 D4 with Isoleucine substituted at position 349
With B4 the “inhibition of IL-16-stimulated T-lymphocyte migration” value (murine rIL-16 [2]) was “maintained partial ability to inhibit” and the “inhibition of IL-16-stimulated T-lymphocyte migration” value (murine rIL-16 [2]; listed as Leucine 349 was conservatively substituted with Isoleucine) was “Partial inhibition”.

B5: … (peptide)
chain: B1 chain with L47I
modifications: OTHER INFORMATION: Description of Artificial Sequence:IL-16 antagonist peptide
notes: human CD4 D4 with Isoleucine substituted at position 348
B5 was tested, and the “inhibition of IL-16-stimulated T-lymphocyte migration” value (murine rIL-16 [2]) was “maintained partial ability to inhibit” and the “inhibition of IL-16-stimulated T-lymphocyte migration” value (murine rIL-16 [2]; listed as Leucine 348 was conservatively substituted with Isoleucine) was “Partial inhibition”.

B6: rIL-16: recombinant murine IL-16, 119 C-terminal residues, produced in Escherichia coli (protein)
chain: T1 sequence (O54824 1204-1322)
With B6 the “% IL-2R+ CELLS” value (rIL-16; rIL-16 10^-9 M alone, no stimulation 24) was 36% and the “increase of basal IL-2R expression” value (rIL-16; rIL-16 alone, murine splenocytes) was 50%.
